Reference: publication PMC8372317, “Discovering protein–protein interaction stabilisers by native mass spectrometry†” (Chemical Science, 2021)
Non-standard residues stand in square brackets, D forms with d. pT = C[C@@H](OP(=O)(O)O)[C@H](N)C(=O)O

Molecular target: T1, 14-3-3σ (UniProt P31947 1-248, partial β-mercaptoethanol capping of Cys38 (+76 Da adduct))
T1 construct: 14-3-3σ (14-3-3 protein sigma); The His-tag is TEV protease cleavable; Observed predominantly as a dimer by native MS; also called recombinant 14-3-3σ; receptor (R)
T1 sequence (looked up): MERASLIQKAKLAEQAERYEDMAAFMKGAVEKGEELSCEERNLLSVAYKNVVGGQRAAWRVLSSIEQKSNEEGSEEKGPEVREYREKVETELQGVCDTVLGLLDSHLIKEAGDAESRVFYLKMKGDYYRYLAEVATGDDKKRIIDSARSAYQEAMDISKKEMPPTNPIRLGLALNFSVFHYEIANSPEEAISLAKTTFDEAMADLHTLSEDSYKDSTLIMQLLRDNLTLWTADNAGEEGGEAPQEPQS
Assay: native MS; 14-3-3σ 5 μM (monomer) with 25 μM phosphopeptide, no ligand (R:P:L 1:5:0); 50 mM ammonium acetate pH 6.8, 0.25% DMSO
Settings: both partners purified

B1: ERα(581–595) phosphopeptide (peptide)
peptide: Ac-KYYITGEAEGFPA[pT]V-OH
notes: estrogen receptor ERα, C-terminal fragment, residues 581-595; also called C-terminal fragment of estrogen receptor ERα; source: synthetic peptide, bought: Synpeptide Ltd (>95% purity)
For B1, the “stoichiometry N” value was 2 peptide per 14-3-3σ dimer.
